The text below walks through data of paper doi:10.1101/2021.02.18.431627 (bioRxiv, 2021).

Data set [1] addresses GlyR-α3L-eGFP (glycine receptor α3, long splice variant L, N-terminally tagged with eGFP) (mouse) (UniProt Q91XP5). Nature of the data set: subunit counting by stepwise photobleaching.
For data set [2] the target is unchanged. Put plainly: molecular brightness by raster image correlation spectroscopy.
Data set [3] deals with the molecule itself. Put plainly: subunit counting by stepwise photobleaching.
Data set [4] concerns the molecule itself. Put plainly: molecular brightness by raster image correlation spectroscopy.

Turning to “GlyR-α3K-mCherry (glycine receptor α3, short splice variant K, N-terminally tagged with mCherry)”, in data set [1], the N (α3L-eGFP subunits per heteropentamer) lay in the range of 2 to 4, the heteropentameric fraction (fit with a 2nd order binomial) came out at 23%, the heteropentameric fraction (fit with a 3rd order binomial) worked out at 36% and the heteropentameric fraction (fit with a 4th order binomial) is 67%. In addition, in data set [2], the N (α3L-eGFP subunits per heteropentamer, in a few cells) is 1.

B1: GlyR-α3L-eGFP (glycine receptor α3, long splice variant L, N-terminally tagged with eGFP) (receptor, mouse, UniProt Q91XP5 34-464, looked up)
chain: ARSRSAPMSPSDFLDKLMGRTSGYDARIRPNFKGPPVNVTCNIFINSFGSIAETTMDYRVNIFLRQKWNDPRLAYSEYPDDSLDLDPSMLDSIWKPDLFFANEKGANFHEVTTDNKLLRIFKNGNVLYSIRLTLTLSCPMDLKNFPMDVQTCIMQLESFGYTMNDLIFEWQDEAPVQVAEGLTLPQFLLKEEKDLRYCTKHYNTGKFTCIEVRFHLERQMGYYLIQMYIPSLLIVILSWVSFWINMDAAPARVALGITTVLTMTTQSSGSRASLPKVSYVKAIDIWMAVCLLFVFSALLEYAAVNFVSRQHKELLRFRRKRKNKTEAFALEKFYRFSDTDDEVRESRFSFTAYGMGPCLQAKDGVVPKGPNHAVQVMPKSPDEMRKVFIDRAKKIDTISRACFPLAFLIFNIFYWVIYKILRHEDIHQQQD
With B1, the “stoichiometry N” value in data set [3] was 5; in data set [4], around 5.
